Sequences and labels used below:
B2: recombinant human RANKL (ligand)
chain: HHHHHHHHHHGSQHIRAEKAMVDGSWLDLAKRSKLEAQPFAHLTINATDIPSGSHKVSLSSWYHDRGWAKISNMTFSNGKLIVNQDGFYYLYANICFRHHETSGDLATEYLQLMVYVTKTSIKIPSSHTLMKGGSTKYWSGNSEFHFYSINVGGFFKLRSGEEISIEVSNPSLLDPDQDATYFGAFKVRDID

Assay [1] concerns the target T1, RANK on RAW264.7 cells (mouse (RAW264.7 cells), UniProt O35305 31-625).
T1 sequence (looked up): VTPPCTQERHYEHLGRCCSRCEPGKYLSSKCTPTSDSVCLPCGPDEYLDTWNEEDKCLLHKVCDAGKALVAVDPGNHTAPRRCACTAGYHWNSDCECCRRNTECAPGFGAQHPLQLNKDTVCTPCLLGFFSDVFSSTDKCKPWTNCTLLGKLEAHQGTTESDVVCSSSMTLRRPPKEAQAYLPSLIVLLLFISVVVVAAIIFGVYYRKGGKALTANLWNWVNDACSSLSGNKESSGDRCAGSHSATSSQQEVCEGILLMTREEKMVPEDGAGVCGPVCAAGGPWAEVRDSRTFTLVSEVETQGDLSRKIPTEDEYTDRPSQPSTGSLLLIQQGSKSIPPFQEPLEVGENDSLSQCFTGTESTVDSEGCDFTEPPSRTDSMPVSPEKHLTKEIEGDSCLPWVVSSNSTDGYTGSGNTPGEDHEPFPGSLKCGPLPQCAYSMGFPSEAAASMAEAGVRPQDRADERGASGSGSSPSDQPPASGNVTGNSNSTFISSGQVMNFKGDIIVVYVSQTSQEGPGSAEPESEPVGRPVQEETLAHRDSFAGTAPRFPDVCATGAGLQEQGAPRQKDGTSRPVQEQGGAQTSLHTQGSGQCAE
Kind of assay: cell-based or functional assay.

The target of assay [2] is B2. The assay can be described thus: cell-based or functional assay.
Assay [3] concerns the target B2. Kind of assay: cell-based or functional assay. This is another data set of the same source.
The target of assay [4] is B2. The assay can be described thus: ELISA, scFv supernatant on coated hRANKL, anti-c-myc-HRP; threshold of the clones sent for sequencing. As to the method: The plates are washed three times with PBST (containing 0.05% Tween 20). The plates are closed with blocking solution (PBS solution containing 2% (WN) of BSA) for 1˜1.5 hours at room temperature. […] The closed microtiter plate is incubated for 2 hours at room temperature, washed three times with PBST. […] After the microtiter plate is washed six times with PBST, TMB substrate (purchased from Cell Signaling Technology, Cat. NO.7004) is added, and the samples are colored at room temperature for 10 minutes, 50 μl 2 M HCl is added in each well to terminate the color, and OD450 nm reading is detected using the M5 equipment.
If OD450>0.4, it is considered as a positive coloration.
In general terms: ELISA stands for enzyme-linked immunosorbent assay.

B1: commercial hRANKL standard (ligand, human, UniProt O14788 140-317, looked up)
chain: IRAEKAMVDGSWLDLAKRSKLEAQPFAHLTINATDIPSGSHKVSLSSWYHDRGWAKISNMTFSNGKLIVNQDGFYYLYANICFRHHETSGDLATEYLQLMVYVTKTSIKIPSSHTLMKGGSTKYWSGNSEFHFYSINVGGFFKLRSGEEISIEVSNPSLLDPDQDATYFGAFKVRDID
In the case of B1, the “EC50 of inducing RAW264.7 cells to be differentiated into osteoclasts (tartrate-resistant acid phosphatase, pNPP)” value in assay [1] was 35.7 ng/ml.
Turning to B2, the “EC50 of inducing RAW264.7 cells to be differentiated into osteoclasts (tartrate-resistant acid phosphatase, pNPP)” value in assay [1] was 113 ng/ml.

B3: G8 (antibody, human IgG2, kappa, V domains shown)
VH: QVQLVQSGAELVQPGASVKLSCKASGYTFTTYWLQWVRQTPGQGLEWMGAIYPGPGNTKYTQKFKDRVTITADTSTSTAYMQLNSLRSEDSAVYYCARRGSRRGIAYWGQGTLVTVSA
VL: NIVLTQSPASLSVSLGQRATISCRASESVDSYGRSFMHWYQQRPGQAPKLLIYLASNLESGVPARFSGSGSRTDFTLTISSVEAEDEATYYCQQDNEDPYTFGGGTKLEIKG
B3: the “IC50 (ng/ml) in RAW264.7 cells, osteoclast differentiation induced by RANKL” value in assay [2] was roughly 573 ng/mL. In addition, the “IC50 for inhibiting hRANKL induced RAW264.7 cell differentiation” value in assay [3] came out at 0.329 µg/mL.

B4: G14 (antibody, human IgG2, kappa, V domains shown)
VH: QVQLVQSGAEVKKPGASVKVSCKASGYTFTTYWLQWVRQAPGQGLEWMGAIYPGPGNTKYTQKFKDRVTITADESTSTAYMELSSLRSEDTAVYYCARRGSRRGIAYWGQGTLVTVSA
VL: DIVMTQSPDSLAVSLGERATINCRASESVDSYGRSFMHWYQQKPGQAPRLLIYLASNLESGVPSRFSGSGSGTDFTLTINSLEAEDAATYYCQQDNEDPYTFGGGTKLEIKG
For B4, in assay [2], the “IC50 (ng/ml) in RAW264.7 cells, osteoclast differentiation induced by RANKL” value is roughly 517 ng/mL. Further, the “IC50 for inhibiting hRANKL induced RAW264.7 cell differentiation” value in assay [3] stood at 0.247 µg/mL.

B5: pFL249-H16u (scFv)
scFv: QVQLVQSGAELKKPGASVKLSCKASGYTFTTYWLQWVRQAPGQGLEWMGAIYPGPGNTKYTQKFKDRFTITADTSKSTAYMQLNSLKSEDSAVYYCARRGSRRGIAYWGQGTLVTVSAASSGGGGSGGGGSGGGGSSNIVLTQSPASLAVSLGQRATISCRASESVDSYGRSFMHWYQQRPGQPPTLLIYLASNLESGVPVRFSGSGSRTDFTLTIDPVEADDAATYYCQQDNEDPYTFGGGTKLEIK
notes: scFv in IPTG-induced E. coli supernatant, screened by ELISA; also called H16u scFv clone of the VH library; not shown: c-myc tag and his tag of vector pFL249
As for B5, the OD450 in assay [4] turned out to be 1.2.

B6: pFL249-H114 (scFv)
scFv: QVQLVQSGAELVQPGASVKLSCKASGYTFTTYWLQWVRQTPGQGLEWMGAIYPGPGNTKYTQKFKDRVTITADTSTSTAYMQLNSLRSEDSAVYYCARRGSRRGIAYWGQGTLVTVSAASSGGGGSGGGGSGGGGSSNIVLTQSPASLAVSLGQRATISCRASESVDSYGRSFMHWYQQRPGQPPTLLIYLASNLESGVPVRFSGSGSRTDFTLTIDPVEADDAATYYCQQDNEDPYTFGGGTKLEIK
notes: scFv in IPTG-induced E. coli supernatant, screened by ELISA; also called H114 scFv clone of the VH library; not shown: c-myc tag and his tag of vector pFL249
Consider B6, for which, in assay [4], the OD450 was 1.2.

B7: pFL249-H16 (scFv)
scFv: QVQLVQSGAELKKPGASVKLSCKASGYTFTTYWLQWVRQAPGQGLEWMGAIYPGPGNTKYTQKFKDRFTITADKSKSTAYMQLNSLKSEDSAVYYCARRGSRRGIAYWGQGTLVTVSAASSGGGGSGGGGSGGGGSSNIVLTQSPASLAVSLGQRATISCRASESVDSYGRSFMHWYQQRPGQPPTLLIYLASNLESGVPVRFSGSGSRTDFTLTIDPVEADDAATYYCQQDNEDPYTFGGGTKLEIK
notes: scFv in IPTG-induced E. coli supernatant, screened by ELISA; also called H16 scFv clone of the VH library; not shown: c-myc tag and his tag of vector pFL249
Take B7: the OD450 in assay [4] came to 1.2.

Values taken from patent US20160333101A1 (GENOR BIOPHARMA, published 2016).
